US20110064740A1 (GlaxoSmithKline, published 2011)
Residue numbers refer to the chain shown, from its start. Names and notes keep the numbering of the source. Values belong to the binder of their own block, whether it stands above or below them. Ends that are not written are not given here. * marks the point of attachment. Biotin = O=C1N[C@H]2[C@H](CS[C@H]2CCCCC(=O)*)N1

Columns and labels:
[1] = target: T1, human Aβ peptide (length not stated) (human, UniProt P05067 672-711); assay: competition ELISA, β-amyloid in solution pre-incubated with the antibody; competitor: immobilised mouse 2E7; Experiment 2
T1 construct: also called β-amyloid in solution
T1 sequence (P05067 672-711): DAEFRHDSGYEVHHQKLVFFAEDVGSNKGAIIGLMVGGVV
Protocol: (§1) 2) β-amyloid in solution; a constant concentration of β-amyloid was pre-incubated with a dilution series of humanised 2E7 antibody variants—the mixture including complexed and free amyloid was added for a short time to wells containing immobilised mouse 2E7 MAb. The amount of free β-amyloid that was still available for binding the immobilised parental 2E7 MAb was then detected.

[2] = target: T2, human Aβ peptide (1-40) biotinylated at the C terminus (human, UniProt P05067 672-711, biotinylated at the C-terminus); assay: competition ELISA, biotinylated human Aβ (1-40) on streptavidin plate; competitor: mouse 2E7 at constant concentration; Experiment 1
T2 construct: domain: β-amyloid peptide (1-40); Numbers 1-40 count on the β-amyloid peptide, not on APP; also called beta-amyloid 1-40 peptide (biotinylated at the C-terminus); streptavidin-captured beta-amyloid (1-40)
T2 sequence (P05067 672-711 limits assumed): as the sequence (P05067 672-711) above
Protocol: (§2) Two types of competition ELISA were established in order to compare the Aβ binding activity of the three humanised variants compared to the 2E7 chimeric antibody. 1) Immobilised β-amyloid; biotinylated human Aβ peptide (1-40) was immobilized through Streptavidin on ELISA plates Mouse 2E7 antibody was added at a constant concentration along with a dilution series of 2E7-derived humanised variant antibodies. Bound mouse 2E7 MAb was then detected with anti-mouse IgG conjugate.

[3] = target: T2, human Aβ peptide (1-40) biotinylated at …; assay: SPR Biacore 3000, Method A(i): C-terminally biotinylated β-amyloid 1-40 on streptavidin chip, antibody as analyte; Run 2
Protocol: (§3) (i) Briefly, <20 resonance units of beta-amyloid 1-40 peptide (biotinylated at the C-terminus) were captured on a streptavidin biosensor chip (as used for Table 10A). The antibodies were diluted down in HBS-EP buffer and passed over the streptavidin/beta-amyloid surface at concentrations ranging from 0.001 nM-8 nM (for Table 10A). Two separate runs were carried out; each run was carried out on a new streptavidin/beta-amyloid surface. Runs 1 and 2 were essentially the same though there were some differences in the parameters used; Run 1 was carried out using a chip surface on which 16 RU's of beta-amyloid were captured, and antibody concentrations of 0.001 nM-8 nM were used, an association time of 4 minutes and a dissociation time of 20 minutes were used at a flow rate of 50 μl per minute. For Run 2, less than 10 RU's of beta-amyloid were captured and antibody concentrations of 0.003125 nM-8 nM were used. The flow rate and association times were the same as Run 1, however the dissociation time was reduced to 15 minutes. (ii) Beta amyloid (1-40) and (1-42) were amine-coupled on different surfaces of a CM5 biosensor chip to a level of <20 resonance units (as used for Table 10B). The antibodies were diluted down in HBS-EP buffer and passed over the biosensor/beta-amyloid surface at concentrations ranging from 1 nM-64 nM (as used for Table 10B).
(§4) In both methods, regeneration was via a pulse of 100 mM H₃PO₄, and for Table 10A data also followed by a pulse of 50 mM NaOH. […] All runs were double referenced against buffer blank injections. Analysis was carried out using the Biacore™ analysis software BIAevaluation version 4.1.

[4] = target: T2, human Aβ peptide (1-40) biotinylated at …; assay: Aβ binding ELISA, human Aβ (1-40) biotinylated at the C terminus
[5] = target: T2, human Aβ peptide (1-40) biotinylated at …; assay: competition ELISA, biotinylated human Aβ (1-40) on streptavidin plate; competitor: mouse 2E7 at constant concentration; Experiment 2
Protocol: as §2

[6] = target: T1, human Aβ peptide (length not stated); assay: competition ELISA, β-amyloid in solution pre-incubated with the antibody; competitor: immobilised mouse 2E7; Experiment 1
Protocol: as §1

[7] = target: T2, human Aβ peptide (1-40) biotinylated at …; assay: Aβ binding ELISA, human Aβ (1-40) biotinylated at the C terminus; remark: listed apart in the source
[8] = target: T2, human Aβ peptide (1-40) biotinylated at …; assay: SPR Biacore 3000, Method A(i): C-terminally biotinylated β-amyloid 1-40 on streptavidin chip, antibody as analyte; Average(SD) of two runs
Protocol: as §3, §4

[9] = target: T2, human Aβ peptide (1-40) biotinylated at …; assay: SPR Biacore 3000, Method A(i): C-terminally biotinylated β-amyloid 1-40 on streptavidin chip, antibody as analyte; Run 1
Protocol: as §3, §4

[10] = target: T2, human Aβ peptide (1-40) biotinylated at …; assay: Aβ binding ELISA, human Aβ (1-40) biotinylated at the C terminus; remark: listed apart in the source
[11] = target: T3, human beta-amyloid peptide (1-40) (human, UniProt P05067 672-711); assay: SPR Biacore 3000, Method B: antibody captured on protein A surface, β-amyloid 4-500 nM as analyte; n = 3; peptide length not given
T3 construct: domain: beta-amyloid peptide (1-40); Unlabelled peptide: amine-coupled to a CM5 chip (Method A(ii)) or in solution as analyte (Method B); also called beta-amyloid (1-40)
T3 sequence (P05067 672-711 limits assumed): as the sequence (P05067 672-711) above
Protocol: (§5) In the second instance the assay was reversed, in that antibodies were first captured to a level of 1000-2500 resonance units on an anti-mouse IgG polyclonal antibody surface (for recombinant mouse 2E7 MAb) or a protein A surface (for humanized H2L1) of a CM5 biosensor chip. Freshly prepared beta-amyloid (1-40) or (1-42) was diluted down in HBS-EP buffer and passed over the captured-antibody surface at concentrations ranging from 4-500 nM (Table 10C and 10D).
as §4

[12] = target: T3, human beta-amyloid peptide (1-40); assay: SPR Biacore 3000, Method A(ii): β-amyloid amine-coupled to CM5 chip, antibody 1-64 nM as analyte
Protocol: as §3, §4

[13] = target: T4, human beta-amyloid peptide (1-42) (human, UniProt P05067 672-713); assay: as above
T4 construct: domain: beta-amyloid peptide (1-42); Unlabelled peptide: amine-coupled to a CM5 chip (Method A(ii)) or in solution as analyte (Method B); also called beta-amyloid (1-42)
T4 sequence (P05067 672-713 limits assumed): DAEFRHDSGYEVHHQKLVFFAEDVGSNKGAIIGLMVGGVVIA
Protocol: as §3, §4

[14] = target: T2, human Aβ peptide (1-40) biotinylated at …; assay: Aβ binding ELISA with culture supernatant, Aβ peptide (1-40)
[15] = target: T5, Peptide Aβ2-13, AEFRHDSGYEVHGSGK-biotin; assay: Biacore, peptide on streptavidin chip
T5 construct: The range counts on the β-amyloid peptide; also called 2-13 peptide; β-amyloid peptide 2-13
T5 peptide: Ac-AEFRHDSGYEVHGSGK(Biotin)
Protocol: In addition to the experiments described above, the Biacore™ 3000 optical biosensor was used to monitor the binding of 2E7 antibody to selected β-amyloid sequence derived peptides. Binding was measured by injecting test antibodies at up to 64 nM for 5 minute over peptides captured on separate streptavidin chip surfaces (130-230 RU (resonance units)). A running buffer (HBS-EP) containing 0.01 M HEPES pH7.4, 0.15 M NaCl, 3 mM EDTA and 0.005% Surfactant P20™ at 25° C. was used at a flow rate of 20 ul/min. All runs were double referenced against a blank streptavidin surface and blank injections. Analysis was carried out using the Biacore™ analysis software BIAevaluation™ version 4.1.
In a study similar to the epitope mapping study on 2E7 using the Surface Plasmon Resonance assay described above, H2L1 behaved similarly to 2E7 in binding to the peptide encompassing amino acids 1-12 (Aβ1, SEQ ID No:15) of the β-amyloid peptide and not to the peptide encompassing amino acids 2-13 of the β-amyloid peptide (Aβ2-13, SEQ ID No:44).

[16] = target: T3, human beta-amyloid peptide (1-40); assay: SPR Biacore 3000, Method B: antibody captured, β-amyloid as analyte
Protocol: as §5, §4

[17] = target: T4, human beta-amyloid peptide (1-42); assay: as above
Protocol: as §5, §4

IC50 [1]: 0.14 µg/mL
IC50 [2]: 1.62 µg/mL
Kd [3]: 0.0922 nM
EC50 [4]: 0.047 µg/mL
IC50 [5]: 1.76 µg/mL
IC50 [6]: 0.114 µg/mL
EC50 [7]: 0.051 µg/mL
Kd [8]: 0.0936 nM
Kd [9]: 0.095 nM
EC50 [10]: 0.035 µg/mL
B1: Humanised 2E7 variant H1L1 (antibody, human IgG1, kappa, V domains shown)
VH: EVQLVESGGGLVQPGGSLRLSCAASGFTFSDNGMAWVRQAPGKGLEWVSFISNLAYSIDYADTVTGRFTISRDNAKNSLYLQMNSLRAEDTAVYYCVSGTWFAYWGQGTLVTVSS
VL: DIVMTQSPLSLPVTPGEPASISCRVSQSLLHSNGYTYLHWYLQKPGQSPQLLIYKVSNRFSGVPDRFSGSGSGTDFTLKISRVEAEDVGVYYCSQTRHVPYTFGGGTKVEIKR
notes: Human IgG1 with L235A and G237A, human kappa; also called L1+H1

IC50 [1]: 0.115 µg/mL
IC50 [2]: 1.53 µg/mL
Kd [3]: 0.0572 nM
EC50 [4]: 0.04 µg/mL
IC50 [5]: 1.39 µg/mL
IC50 [6]: 0.069 µg/mL
EC50 [7]: 0.055 µg/mL
Kd [8]: 0.0666 nM
Kd [9]: 0.076 nM
EC50 [10]: 0.044 µg/mL
B2: Humanised 2E7 variant H3L1 (antibody, human IgG1, kappa, V domains shown)
VH: B1 VH with V48I
VL: B1 VL
notes: Human IgG1 with L235A and G237A, human kappa; also called L1+H3

IC50 [1]: 0.119 µg/mL
IC50 [2]: 1.28 µg/mL
Kd [11]: 7.32 nM
koff [11]: 0.00075 s⁻¹
kon [11]: 106000 M⁻¹ s⁻¹
Kd [3]: 0.0498 nM
Kd [12]: 0.366 nM
koff [12]: 0.000122 s⁻¹
kon [12]: 333000 M⁻¹ s⁻¹
Kd [13]: 0.456 nM
koff [13]: 0.000155 s⁻¹
kon [13]: 340000 M⁻¹ s⁻¹
EC50 [14]: 0.113 µg/mL
EC50 [4]: 0.041 µg/mL
IC50 [5]: 1.66 µg/mL
IC50 [6]: 0.075 µg/mL
EC50 [7]: 0.044 µg/mL
Kd [8]: 0.054 nM
binding result [15]: no binding
Kd [9]: 0.0581 nM
EC50 [10]: 0.048 µg/mL
B3: Humanised 2E7 variant H2L1 (antibody, human IgG1, kappa, V domains shown)
VH: B1 VH with A24V
VL: B1 VL
notes: Human IgG1 with L235A and G237A, human kappa; also called L1+H2; H2L1 whole IgG

Kd [16]: 1.31 nM
koff [16]: 0.000392 s⁻¹
kon [16]: 299000 M⁻¹ s⁻¹
Kd [17]: 1.14 nM
koff [17]: 0.000274 s⁻¹
kon [17]: 239000 M⁻¹ s⁻¹
B4: 2F11, an identical sequence clone to mouse 2E7 MAb (antibody, V domains shown)
VH: EVKLVESGGGLVQPGGSLKLSCAVSGFTFSDNGMAWVRQAPRKGPEWIAFISNLAYSIDYADTVTGRFTISRDNAKNTLYLEMSSLRSEDTAMYYCVSGTWFAYWGQGTLVTVSA
VL: DVVLTQTPLSLPVSLGDQASISCRVSQSLLHSNGYTYLHWYLQKPGQSPKLLIYKVSNRFSGVPDRFSGSGSGTDFTLKISRVEAEDLGVYFCSQTRHVPYTFGGGTKLEIK
notes: Mouse antibody

IC50 [2]: 1.31 µg/mL
Kd [3]: 0.0435 nM
EC50 [4]: 0.044 µg/mL
IC50 [5]: 1.29 µg/mL
IC50 [6]: 0.052 µg/mL
EC50 [7]: 0.043 µg/mL
Kd [8]: 0.0458 nM
Kd [9]: 0.0481 nM
EC50 [10]: 0.033 µg/mL
B5: Chimeric 2E7 antibody (2E7c) (antibody, human IgG1, V domains shown)
VH: B4 VH
VL: B4 VL
notes: Parent murine V regions on human IgG1 (L235A, G237A) and human C kappa; also called 2E7c Chimera; not shown: human IgG1 heavy chain constant region, Fc mutated (L235A, G237A); human C kappa constant region
